According to article PMC10171809:

Molecular target: HEXIM1 (UniProt O94992)
Test: co-immunoprecipitation
Conditions: reference: wild type; sites S43

binding against the reference: stronger
Substance: METTL3 (from UniProt Q86U44) S43A
